Assay results published in PMC4522956 (2015).

What was measured:
[1] = target: T1, HIF-1β PASb labeled with FITC (human (cDNA library from the breast …, UniProt P27540 349-467, FITC (fluorescein isothiocyanate) label, sites not stated)); assay: FP; PASb-3α with linoleic acid, at equilibrium
[2] = target: T1, HIF-1β PASb labeled with FITC; assay: FP; PASb-3α with bacterial lipids, at equilibrium
[3] = target: T1, HIF-1β PASb labeled with FITC; assay: FP; at equilibrium

T1 sequence (P27540 349-467): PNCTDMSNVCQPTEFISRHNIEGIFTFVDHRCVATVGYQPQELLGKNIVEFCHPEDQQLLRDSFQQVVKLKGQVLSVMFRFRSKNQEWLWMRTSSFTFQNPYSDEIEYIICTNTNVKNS

| Binder | Kd [1] | Kd [2] | Kd [3] |
| --- | --- | --- | --- |
| C-terminal Per-Arnt-Sim (PASb) domain of human HIF-3α9 (domain or fragment) GAFLSRHSLDMKFTYCDDRIAEVAGYSPDDLIGCSAYEYIHALDSDAVSKSIHTLLSKGQAVTGQYRFLARSGGYLWTQTQATVVSGGRGPQSESIVCVHFLISQVEET | 10 µM | 12 µM | – |
| HIF-1α PASb (domain or fragment) not shown | – | – | 36 µM |
